Numbering of substitutions follows the chain as printed. Blank lines part the entries; values can stand above or below the binder they belong to.
Biological target: T1, soluble human GPC3 (human, UniProt P51654 25-563, limits assumed)
T1 construct: soluble human GPC3 as analyte; also called glypican 3
Test: SPR (Biacore), soluble human GPC3

T1 sequence (P51654 other isoform, or with tags, fused parts or gaps limits assumed, form in doubt): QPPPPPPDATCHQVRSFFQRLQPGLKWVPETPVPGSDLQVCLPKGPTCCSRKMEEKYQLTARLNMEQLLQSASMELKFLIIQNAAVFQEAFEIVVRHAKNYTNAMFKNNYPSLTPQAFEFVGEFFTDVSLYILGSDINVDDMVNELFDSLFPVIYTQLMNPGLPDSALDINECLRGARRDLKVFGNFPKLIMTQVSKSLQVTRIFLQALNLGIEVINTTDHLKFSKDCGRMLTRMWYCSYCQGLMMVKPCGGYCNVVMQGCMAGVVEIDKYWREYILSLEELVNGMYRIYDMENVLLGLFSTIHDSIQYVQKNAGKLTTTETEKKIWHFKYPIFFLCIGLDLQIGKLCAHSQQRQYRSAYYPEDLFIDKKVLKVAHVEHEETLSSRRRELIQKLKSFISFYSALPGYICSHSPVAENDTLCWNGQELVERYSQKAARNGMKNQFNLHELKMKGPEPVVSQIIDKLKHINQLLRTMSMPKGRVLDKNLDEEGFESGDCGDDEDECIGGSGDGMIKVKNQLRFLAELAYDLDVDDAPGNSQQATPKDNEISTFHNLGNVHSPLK

B2: GCH098-G1dh/none-Hi-Kn010G3/L0000-k0 (antibody, human IgG1, kappa)
heavy: not shown
chain: EPKSSDKTHTCPPCPAPELLGGPSVFLFPPKPKDTLMISRTPEVTCVVVDVSHEDPEVKFNWYVDGVEVHNAKTKPREEQYNSTYRVVSVLTVLHQDWLNGKEYKCKVSNKALPAPIEKTISKAKGQPREPQVCTLPPSRDELTKNQVSLWCLVKGFYPSDIAVEWESNGQPENNYKTTPPVLDSDGSFFLYSKLTVDKSRWQQGNVFSCSVMHEALHNRYTQKSLSLSP
light: DIVMTQSPLSLPVTPGEPASISCRSSQSLVHSNRNTYLHWYQQKPGQAPRLLIYKVSNRFSGVPDRFSGSGSGTDFTLKISRVEAEDVGVYYCGQGTQVPYTFGQGTKLEIKRTVAAPSVFIFPPSDEQLKSGTASVVCLLNNFYPREAKVQWKVDNALQSGNSQESVTEQDSKDSTYSLSSTLTLSKADYEKHKVYACEVTHQGLSSPVTKSFNRGEC
notes: single-arm (one Fab)
Kd: 1.77 nM

B4: H0610-G1dh/none-Hi-Kn010G3/L0032-k0 (antibody, human IgG1, kappa)
heavy: not shown
chain: B2 chain
light: B2 light with H31R
notes: single-arm (one Fab)
Kd: 3.72 nM

B5: H0610-G1dh/none-Hi-Kn010G3/L0093-k0 (antibody, human IgG1, kappa)
heavy: not shown
chain: B2 chain
light: B2 light with H39Q
notes: single-arm (one Fab)
Kd: 0.106 nM

B8: H0610-G1dh/none-Hi-Kn010G3/L0002-k0 (antibody, human IgG1, kappa)
heavy: not shown
chain: B2 chain
light: B2 light with S25A
notes: single-arm (one Fab)
Kd: 4.43 nM

B9: H0610-G1dh/none-Hi-Kn010G3/L0008-k0 (antibody, human IgG1, kappa)
heavy: not shown
chain: B2 chain
light: B2 light with S25V
notes: single-arm (one Fab)
Kd: 3.3 nM

B11: H0610-G1dh/none-Hi-Kn010G3/L0079-k0 (antibody, human IgG1, kappa)
heavy: not shown
chain: B2 chain
light: B2 light with L38I
notes: single-arm (one Fab)
Kd: 4.23 nM

B13: H0610-G1dh/none-Hi-Kn010G3/L0006-k0 (antibody, human IgG1, kappa)
heavy: not shown
chain: B2 chain
light: B2 light with S25P
notes: single-arm (one Fab)
Kd: 3.04 nM

B14: H0610-G1dh/none-Hi-Kn010G3/L0124-k0 (antibody, human IgG1, kappa)
heavy: not shown
chain: B2 chain
light: B2 light with F60L
notes: single-arm (one Fab)
Kd: 0.972 nM

B15: H0610-G1dh/none-Hi-Kn010G3/L0066-k0 (antibody, human IgG1, kappa)
heavy: not shown
chain: B2 chain
light: B2 light with N35H
notes: single-arm (one Fab)
Kd: 4.2 nM

B17: H0610-G1dh/none-Hi-Kn010G3/L0127-k0 (antibody, human IgG1, kappa)
heavy: not shown
chain: B2 chain
light: B2 light with F60P
notes: single-arm (one Fab)
Kd: 3.12 nM

B18: H0610-G1dh/none-Hi-Kn010G3/L0014-k0 (antibody, human IgG1, kappa)
heavy: not shown
chain: B2 chain
light: B2 light with L29M
notes: single-arm (one Fab)
Kd: 1.82 nM

B21: GCH098-G1dh/none-Hi-Kn010G3/L0201-k0 (antibody, human IgG1, kappa)
heavy: not shown
chain: B2 chain
light: B2 light with S28P, L29P
notes: single-arm (one Fab)
Kd: 0.111 nM

B23: H0610-G1dh/none-Hi-Kn010G3/L0090-k0 (antibody, human IgG1, kappa)
heavy: not shown
chain: B2 chain
light: B2 light with H39M
notes: single-arm (one Fab)
Kd: 1.12 nM

B24: H0610-G1dh/none-Hi-Kn010G3/L0041-k0 (antibody, human IgG1, kappa)
heavy: not shown
chain: B2 chain
light: B2 light with S32L
notes: single-arm (one Fab)
Kd: 4.85 nM

B25: H0610-G1dh/none-Hi-Kn010G3/L0122-k0 (antibody, human IgG1, kappa)
heavy: not shown
chain: B2 chain
light: B2 light with F60I
notes: single-arm (one Fab)
Kd: 2.42 nM

B26: H0610-G1dh/none-Hi-Kn010G3/L0015-k0 (antibody, human IgG1, kappa)
heavy: not shown
chain: B2 chain
light: B2 light with L29P
notes: single-arm (one Fab)
Kd: 1.31 nM

B27: GCH099-G1dh/none-Hi-Kn010G3/L0000-k0 (antibody, human IgG1, kappa)
heavy: not shown
chain: B2 chain
light: B2 light
notes: single-arm (one Fab); printed with a small k in Hi-kn010G3
Kd: 4.24 nM

B31: H0610-G1dh/none-Hi-Kn010G3/L0045-k0 (antibody, human IgG1, kappa)
heavy: not shown
chain: B2 chain
light: B2 light with S32Q
notes: single-arm (one Fab)
Kd: 4.66 nM

B35: H0610-G1dh/none-Hi-Kn010G3/L0044-k0 (antibody, human IgG1, kappa)
heavy: not shown
chain: B2 chain
light: B2 light with S32P
notes: single-arm (one Fab)
Kd: 4.57 nM

B37: H0610-G1dh/none-Hi-Kn010G3/L0125-k0 (antibody, human IgG1, kappa)
heavy: not shown
chain: B2 chain
light: B2 light with F60M
notes: single-arm (one Fab)
Kd: 1.71 nM

B40: H0610-G1dh/none-Hi-Kn010G3/L0007-k0 (antibody, human IgG1, kappa)
heavy: not shown
chain: B2 chain
light: B2 light with S25T
notes: single-arm (one Fab)
Kd: 4.39 nM

B41: H0610-G1dh/none-Hi-Kn010G3/L0064-k0 (antibody, human IgG1, kappa)
heavy: not shown
chain: B2 chain
light: B2 light with N35F
notes: single-arm (one Fab)
Kd: 3.37 nM

B42: H0610-G1dh/none-Hi-Kn010G3/L0140-k0 (antibody, human IgG1, kappa)
heavy: not shown
chain: B2 chain
light: B2 light with S61L
notes: single-arm (one Fab)
Kd: 3.38 nM

B46: H0610-G1dh/none-Hi-Kn010G3/L0013-k0 (antibody, human IgG1, kappa)
heavy: not shown
chain: B2 chain
light: B2 light with L29I
notes: single-arm (one Fab)
Kd: 3.35 nM

Second part, the binder after the results:

Kd: 2.1 nM
B1: GCH094-G1dh/none-Hi-Kn010G3/L0272-k0 (antibody, human IgG1, kappa)
heavy: not shown
chain: B2 chain
light: B2 light with S28P, N35Q
notes: single-arm (one Fab)

Kd: 3.81 nM
B3: GCH100-G1dh/none-Hi-Kn010G3/L0011-k0 (antibody, human IgG1, kappa)
heavy: not shown
chain: B2 chain
light: B2 light with S28P
notes: single-arm (one Fab)

Kd: 2.75 nM
B6: H0610-G1dh/none-Hi-Kn010G3/L0038-k0 (antibody, human IgG1, kappa)
heavy: not shown
chain: B2 chain
light: B2 light with S32F
notes: single-arm (one Fab)

Kd: 3.41 nM
B7: H0610-G1dh/none-Hi-Kn010G3/L0039-k0 (antibody, human IgG1, kappa)
heavy: not shown
chain: B2 chain
light: B2 light with S32H
notes: single-arm (one Fab)

Kd: 4.44 nM
B10: H0610-G1dh/none-Hi-Kn010G3/L0016-k0 (antibody, human IgG1, kappa)
heavy: not shown
chain: B2 chain
light: B2 light with L29V
notes: single-arm (one Fab)

Kd: 2.76 nM
B12: H0610-G1dh/none-Hi-Kn010G3/L0011-k0 (antibody, human IgG1, kappa)
heavy: not shown
chain: B2 chain
light: B2 light with S28P
notes: single-arm (one Fab)

Kd: 2.78 nM
B16: GCH099-G1dh/none-Hi-Kn010G3/L0011-k0 (antibody, human IgG1, kappa)
heavy: not shown
chain: B2 chain
light: B2 light with S28P
notes: single-arm (one Fab)

Kd: 2.85 nM
B19: H0610-G1dh/none-Hi-Kn010G3/L0075-k0 (antibody, human IgG1, kappa)
heavy: not shown
chain: B2 chain
light: B2 light with N35W
notes: single-arm (one Fab)

Kd: 1.17 nM
B20: H0610-G1dh/none-Hi-Kn010G3/L0085-k0 (antibody, human IgG1, kappa)
heavy: not shown
chain: B2 chain
light: B2 light with H39E
notes: single-arm (one Fab)

Kd: 0.802 nM
B22: GCH098-G1dh/none-Hi-Kn010G3/L0011-k0 (antibody, human IgG1, kappa)
heavy: not shown
chain: B2 chain
light: B2 light with S28P
notes: single-arm (one Fab)

Kd: 4.34 nM
B28: H0610-G1dh/none-Hi-Kn010G3/L0115-k0 (antibody, human IgG1, kappa)
heavy: not shown
chain: B2 chain
light: B2 light with N58W
notes: single-arm (one Fab)

Kd: 1.55 nM
B29: H0610-G1dh/none-Hi-Kn010G3/L0012-k0 (antibody, human IgG1, kappa)
heavy: not shown
chain: B2 chain
light: B2 light with L29F
notes: single-arm (one Fab)

Kd: 2.23 nM
B30: H0610-G1dh/none-Hi-Kn010G3/L0047-k0 (antibody, human IgG1, kappa)
heavy: not shown
chain: B2 chain
light: B2 light with S32W
notes: single-arm (one Fab)

Kd: 4.01 nM
B32: H0610-G1dh/none-Hi-Kn010G3/L0003-k0 (antibody, human IgG1, kappa)
heavy: not shown
chain: B2 chain
light: B2 light with S25I
notes: single-arm (one Fab)

Kd: 1.37 nM
B33: GCH100-G1dh/none-Hi-Kn010G3/L0201-k0 (antibody, human IgG1, kappa)
heavy: not shown
chain: B2 chain
light: B2 light with S28P, L29P
notes: single-arm (one Fab)

Kd: 4.54 nM
B34: H0610-G1dh/none-Hi-Kn010G3/L0129-k0 (antibody, human IgG1, kappa)
heavy: not shown
chain: B2 chain
light: B2 light with F60R
notes: single-arm (one Fab)

Kd: 4.79 nM
B36: H0610-G1dh/none-Hi-Kn010G3/L0065-k0 (antibody, human IgG1, kappa)
heavy: not shown
chain: B2 chain
light: B2 light with N35G
notes: single-arm (one Fab)

Kd: 4.27 nM
B38: H0610-G1dh/none-Hi-Kn010G3/L0042-k0 (antibody, human IgG1, kappa)
heavy: not shown
chain: B2 chain
light: B2 light with S32M
notes: single-arm (one Fab)

Kd: 3.43 nM
B39: H0610-G1dh/none-Hi-Kn010G3/L0082-k0 (antibody, human IgG1, kappa)
heavy: not shown
chain: B2 chain
light: B2 light with L38V
notes: single-arm (one Fab)

Kd: 2.99 nM
B43: H0610-G1dh/none-Hi-Kn010G3/L0009-k0 (antibody, human IgG1, kappa)
heavy: not shown
chain: B2 chain
light: B2 light with S26P
notes: single-arm (one Fab)

Kd: 2.53 nM
B44: H0610-G1dh/none-Hi-Kn010G3/L0134-k0 (antibody, human IgG1, kappa)
heavy: not shown
chain: B2 chain
light: B2 light with F60Y
notes: single-arm (one Fab)

Kd: 4.38 nM
B45: H0610-G1dh/none-Hi-Kn010G3/L0107-k0 (antibody, human IgG1, kappa)
heavy: not shown
chain: B2 chain
light: B2 light with N58I
notes: single-arm (one Fab)

Kd: 1.29 nM
B47: GCH099-G1dh/none-Hi-Kn010G3/L0201-k0 (antibody, human IgG1, kappa)
heavy: not shown
chain: B2 chain
light: B2 light with S28P, L29P
notes: single-arm (one Fab)

— patent publication US20210388110A1 (published 2021)
